Measured values taken from patent publication EP3553078A1 (Julius-Maximilians-Universität Würzburg, dated 2019).

Biological target: T1, IL-4Rα ectodomain (site-specifically biotinylated IL-4Rα ectodomain protein) (human, UniProt P24394 26-232, site-specifically biotinylated (site not stated))
T1 construct: extracellular domain; Immobilised on a streptavidin-coated SPR chip; also called IL-4Rα ECD; IL-4 receptor α
T1 sequence (looked up): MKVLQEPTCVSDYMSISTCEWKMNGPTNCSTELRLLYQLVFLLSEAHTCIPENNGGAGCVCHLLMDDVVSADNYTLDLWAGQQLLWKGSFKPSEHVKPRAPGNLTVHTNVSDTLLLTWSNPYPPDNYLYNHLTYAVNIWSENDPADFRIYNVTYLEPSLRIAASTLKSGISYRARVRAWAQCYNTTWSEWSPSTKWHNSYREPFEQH
Assay: in vitro interaction analysis (SPR) on IL-4Rα

Kd: ~0.218 nM
B1: IL-4 mutein F82D Q20N T28N K61N R121C-Glc (Hek293-derived, hyper-glycosylated) (ligand)
chain: HKCDITLQEIIKTLNSLTENKTLCTELNVTDIFAASKNTTEKETFCRAATVLRQFYSHHENDTRCLGATAQQFHRHKQLIRDLKRLDRNLWGLAGLNSCPVKEANQSTLENFLERLKTIMCEKYSKCSS
modifications: complex N-glycans at positions 38, 20, 28 and 61; disulphide conjugated glucose at Cys121
notes: also called Q20N/T28N/K61N/F82D/R121C-Glc; 3rd generation IL-4 antagonist; not shown: C-terminal thrombin cleavage site and hexahistidine tag of the modified pHLsec vector
